# Measurements from US20160032278A1.
# What was measured:
# [1] = molecular target: papain (UniProt P00784); experiment: SPR, cystatin immobilised on NTA chip via His tag, papain in solution
# [2] = molecular target: papain (UniProt P00784); experiment: cell-based or functional assay
# [3] = molecular target: papain (UniProt P00784); experiment: SPR; text value differs from Table 3 (4.7 × 10^-9)
# Chain of papain (P00784 134-345 limits assumed): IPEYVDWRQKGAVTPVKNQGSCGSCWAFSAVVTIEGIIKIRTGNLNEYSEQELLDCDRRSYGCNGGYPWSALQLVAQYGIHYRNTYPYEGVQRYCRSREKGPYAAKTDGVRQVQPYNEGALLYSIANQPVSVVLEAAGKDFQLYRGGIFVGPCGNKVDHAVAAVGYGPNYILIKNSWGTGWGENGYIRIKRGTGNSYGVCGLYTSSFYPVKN
Ka [1] [M⁻¹],Kd [1] [nM],koff [1] [s⁻¹],kon [1] [M⁻¹ s⁻¹],"IC50, papain inhibition (substrate pGlu-Phe-Leu-p-nitroanilide) [2] [M]",Kd [3] [nM],Substance
5e+07,20,0.0052,260000,–,–,"CPA (papaya cystatin, Carcia papaya)"
7.3e+07,14,0.0035,260000,–,–,"CUN (satsuma orange cystatin, Citrus unshiu)"
2.1e+08,4.7,0.0012,260000,1.8e-07,47,OSA-IΔD86 (modified oryzacystatin I lacking residue Asp86) (from UniProt P09229 39-140)
